Data taken from paper doi:10.1101/2024.06.20.599739, “Design of linear and cyclic peptide binders of different lengths from protein sequence information” (bioRxiv, 2024).
Values joined by “and” are separate entries in the source; they are usually repeats but may differ in a detail not shown here. Identical values can stand only once.

Biological target: T1, MBP-8xHis-1SCC (semi-synthetic Ribonuclease, PDB ID 1SSC) (UniProt P61823 27-138)
T1 construct: also called psfRNAseA; psfRNAseA-c001; source: E. coli BL21 (DE3) T1R, purified (IMAC, size exclusion chromatography)
T1 sequence: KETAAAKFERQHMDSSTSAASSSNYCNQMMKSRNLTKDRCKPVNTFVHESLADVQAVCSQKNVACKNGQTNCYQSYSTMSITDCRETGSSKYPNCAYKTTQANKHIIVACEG
Experiment: SPR; MBP-8xHis-1SCC immobilised to about 12000 RU by amine coupling (EDC/NHS) on a Series S CM5 chip, Biacore 8K; peptides as analytes, single-cycle kinetics (2, 10, 50 μM; or 3.125-50 μM in five steps); 25 °C; HBS-P+ (10 mM HEPES pH 7.4, 150 mM NaCl, 0.05% Tween-20); 30 μL/min, 120 s association, 1800 s dissociation; 1:1 binding model
Settings: both partners purified

Kd: 35 nM and 25 nM
B1: known peptide binder (11 residues) of the semi-synthetic Ribonuclease (peptide)
peptide: PYVPVHFDASV
notes: C-terminal stretch of ribonuclease A, the peptide chain of PDB 1SSC; also called wildtype (WT) linear peptide; wild-type peptide; source: synthetic peptide
